Experimental data taken from PMC10397247.
Read-outs that look alike come from different tables or passages of the source. Blank lines part the entries; values can stand above or below the binder they belong to.

Experiments:
Experiment in all cases: two-hybrid library CCmax;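 also: natural log of median RNA to DNA barcode read ratio; higher means stronger binding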
4H3340-AA = biological target: T1, 4H3340-AA; details: mean of both orientations
T1 chain: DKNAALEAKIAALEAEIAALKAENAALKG

4H3493-AA = biological target: T2, 4H3493-AA
T2 chain: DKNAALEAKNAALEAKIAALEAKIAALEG

4H376-AA = biological target: T3, 4H376-AA; details: mean of both orientations
T3 chain: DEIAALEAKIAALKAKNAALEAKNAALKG

4H688-AA = biological target: T4, 4H688-AA; details: mean of both orientations
T4 chain: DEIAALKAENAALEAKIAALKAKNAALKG

4H1257-AA = biological target: T5, 4H1257-AA
T5 chain: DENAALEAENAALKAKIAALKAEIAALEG

4H1558-AA = biological target: T6, 4H1558-AA; details: mean of both orientations
T6 chain: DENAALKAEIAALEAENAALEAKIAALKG

4H2442-AA = biological target: T7, 4H2442-AA; details: mean of both orientations
T7 chain: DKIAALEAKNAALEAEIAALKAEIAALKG

4H3354-AA = biological target: T8, 4H3354-AA; details: mean of both orientations
T8 chain: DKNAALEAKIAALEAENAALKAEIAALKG

4H3855-AA = biological target: T9, 4H3855-AA; details: mean of both orientations
T9 chain: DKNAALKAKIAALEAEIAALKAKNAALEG

4H687-AA = biological target: T10, 4H687-AA; details: mean of both orientations
T10 chain: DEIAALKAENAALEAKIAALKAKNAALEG

4H883-AA = biological target: T11, 4H883-AA
T11 chain: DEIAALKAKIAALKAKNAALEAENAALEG

4H918-AA = biological target: T12, 4H918-AA; details: mean of both orientations
T12 chain: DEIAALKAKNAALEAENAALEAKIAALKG

4H967-AA = biological target: T13, 4H967-AA; details: mean of both orientations
T13 chain: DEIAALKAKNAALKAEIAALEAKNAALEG

4H123-AA = biological target: T14, 4H123-AA; details: mean of both orientations
T14 chain: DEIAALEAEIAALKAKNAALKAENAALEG

4H_APH3 = biological target: T15, 4H_APH3
T15 chain: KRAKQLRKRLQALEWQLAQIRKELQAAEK

AP1-AA = biological target: T16, AP1-AA; details: mean of both orientations
T16 chain: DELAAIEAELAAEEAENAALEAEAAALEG

AP2-AA = biological target: T17, AP2-AA; details: mean of both orientations
T17 chain: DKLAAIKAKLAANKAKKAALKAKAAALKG

AP4-AA = biological target: T18, AP4-AA; details: mean of both orientations
T18 chain: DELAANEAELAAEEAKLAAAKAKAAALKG

AP8-AA = biological target: T19, AP8-AA; details: mean of both orientations
T19 chain: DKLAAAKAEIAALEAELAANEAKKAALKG

O5-AA = biological target: T20, O5-AA; details: mean of both orientations
T20 chain: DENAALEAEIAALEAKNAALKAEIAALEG

P1-AA = biological target: T21, P1-AA; details: mean of both orientations
T21 chain: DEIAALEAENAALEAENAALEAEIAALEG

P11-AA = biological target: T22, P11-AA; details: mean of both orientations
T22 chain: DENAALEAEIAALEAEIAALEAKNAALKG

P12-AA = biological target: T23, P12-AA; details: mean of both orientations
T23 chain: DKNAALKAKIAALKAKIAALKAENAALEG

P2-AA = biological target: T24, P2-AA; details: mean of both orientations
T24 chain: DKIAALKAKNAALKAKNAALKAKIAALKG

zCON9_A = biological target: T25, zCON9_A
T25 chain: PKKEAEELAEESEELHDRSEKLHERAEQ

zCON9_B = biological target: T26, zCON9_B; details: mean of both orientations
T26 chain: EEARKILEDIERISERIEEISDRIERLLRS

4H2575-AA = biological target: T27, 4H2575-AA
T27 chain: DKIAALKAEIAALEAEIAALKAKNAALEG

4H335-AA = biological target: T28, 4H335-AA; details: mean of both orientations
T28 chain: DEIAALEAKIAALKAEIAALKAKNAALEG

4H780-AA = biological target: T29, 4H780-AA; details: mean of both orientations
T29 chain: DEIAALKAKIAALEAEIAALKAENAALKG

4H1392-AA = biological target: T30, 4H1392-AA; details: mean of both orientations
T30 chain: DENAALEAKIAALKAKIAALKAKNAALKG

4H2622-AA = biological target: T31, 4H2622-AA; details: mean of both orientations
T31 chain: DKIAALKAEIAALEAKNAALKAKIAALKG

4H2888-AA = biological target: T32, 4H2888-AA; details: mean of both orientations
T32 chain: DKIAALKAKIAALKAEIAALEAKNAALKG

4H337-AA = biological target: T33, 4H337-AA; details: mean of both orientations
T33 chain: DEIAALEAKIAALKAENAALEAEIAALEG

4H3587-AA = biological target: T34, 4H3587-AA; details: mean of both orientations
T34 chain: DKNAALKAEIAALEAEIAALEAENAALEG

4H3905-AA = biological target: T35, 4H3905-AA; details: mean of both orientations
T35 chain: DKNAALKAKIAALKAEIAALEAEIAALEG

4H4038-AA = biological target: T36, 4H4038-AA; details: mean of both orientations
T36 chain: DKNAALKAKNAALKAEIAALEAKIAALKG

4H451-AA = biological target: T37, 4H451-AA
T37 chain: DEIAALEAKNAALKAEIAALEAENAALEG

P6-AA-1HAA-N = biological target: T38, P6-AA-1HAA-N; details: mean of both orientations
T38 chain: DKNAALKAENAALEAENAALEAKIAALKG

4H1636-AA = biological target: T39, 4H1636-AA; details: mean of both orientations
T39 chain: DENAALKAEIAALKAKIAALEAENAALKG

4H1867-AA = biological target: T40, 4H1867-AA; details: mean of both orientations
T40 chain: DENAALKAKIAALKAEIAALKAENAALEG

4H2078-AA = biological target: T41, 4H2078-AA; details: mean of both orientations
T41 chain: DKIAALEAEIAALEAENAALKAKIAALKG

4H2151-AA = biological target: T42, 4H2151-AA; details: mean of both orientations
T42 chain: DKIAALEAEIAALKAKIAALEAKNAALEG

O6-AA = biological target: T43, O6-AA; details: mean of both orientations
T43 chain: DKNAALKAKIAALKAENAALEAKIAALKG

B1: 4H249-AA (peptide)
chain: DEIAALEAENAALKAKNAALKAEIAALEG
interaction score (4H3340-AA): -1.45
interaction score (4H3493-AA): -1.67
interaction score (4H376-AA): -1.45
interaction score (4H688-AA): 0.32

B2: 4H1257-AA (peptide)
chain: DENAALEAENAALKAKIAALKAEIAALEG
interaction score (4H1257-AA): 0.41
interaction score (4H1558-AA): -0.232
interaction score (4H2442-AA): -1.57
interaction score (4H3354-AA): -1.6
interaction score (4H3855-AA): -0.401
interaction score (4H687-AA): -1.24
interaction score (4H883-AA): -1.67
interaction score (4H918-AA): -1.05
interaction score (4H967-AA): -0.389

B7: 4H1350-AA (peptide)
chain: DENAALEAKIAALKAEIAALEAKIAALKG
interaction score (4H1392-AA): -0.186
interaction score (4H2622-AA): 1.12
interaction score (4H2888-AA): 2.21
interaction score (4H337-AA): 1.52
interaction score (4H3587-AA): 1.39
interaction score (4H3905-AA): 1.9
interaction score (4H4038-AA): 0.909
interaction score (4H451-AA; mean of both orientations): 0.115

B8: 4H1626-AA (peptide)
chain: DENAALKAEIAALKAENAALKAEIAALKG
interaction score (4H3340-AA): -1.43
interaction score (4H3493-AA; mean of both orientations): -1.45
interaction score (4H376-AA): -1.87
interaction score (4H688-AA): -1.19

B9: 4H1385-AA (peptide)
chain: DENAALEAKIAALKAKIAALKAEIAALEG
interaction score (4H1392-AA): -0.355
interaction score (4H2622-AA): 1.24
interaction score (4H2888-AA): 1.96
interaction score (4H337-AA): 0.173
interaction score (4H3587-AA): 1.58
interaction score (4H3905-AA): 2.31
interaction score (4H4038-AA): 1.56
interaction score (4H451-AA): -1.11
interaction score (P6-AA-1HAA-N): -0.2

B11: 4H1153-AA (peptide)
chain: DENAALEAENAALEAEIAALEAEIAALEG
interaction score (4H123-AA): -2.05
interaction score (4H1636-AA): -1.31
interaction score (4H1867-AA): 0.531
interaction score (4H2078-AA): -0.975
interaction score (4H2151-AA): -1.21
interaction score (4H2575-AA): -0.264
interaction score (4H335-AA): -0.418
interaction score (4H780-AA): -1.44

B12: 4H1401-AA (peptide)
chain: DENAALEAKIAALKAKNAALKAEIAALEG
interaction score (4H1636-AA): -1.81
interaction score (4H1867-AA): -1.22
interaction score (4H2078-AA): 1.93
interaction score (4H2151-AA): -1.5
interaction score (4H_APH3): -1.06
interaction score (AP1-AA): -1.76
interaction score (AP2-AA): -1.98
interaction score (AP4-AA): -1.22
interaction score (AP8-AA): -0.198
interaction score (O6-AA): 1.98
interaction score (P1-AA): -0.911
interaction score (P11-AA): 0.388
interaction score (P12-AA): -1.92
interaction score (P2-AA): -1.76
interaction score (P6-AA-1HAA-N): 1.57
interaction score (zCON9_A): -1.95
interaction score (zCON9_B): -0.316

Second part, the binder after the results:

interaction score (4H2442-AA): -1.87
interaction score (4H3354-AA): -1.37
interaction score (4H3855-AA): -1.94
interaction score (4H687-AA): -1.51
interaction score (4H883-AA; mean of both orientations): -1.57
interaction score (4H918-AA): -1
interaction score (4H967-AA): -1.65
B3: 4H1845-AA (peptide)
chain: DENAALKAKIAALEAKNAALEAKIAALEG

interaction score (4H123-AA): -1.25
B4: 4H1142-AA (peptide)
chain: DENAALEAEIAALKAKNAALEAKIAALKG

interaction score (4H_APH3): -1.55
interaction score (AP1-AA): -1.62
interaction score (AP2-AA): -1.36
interaction score (AP4-AA): -1.63
interaction score (AP8-AA): -1.43
interaction score (O5-AA): 2.23
interaction score (P1-AA): -1.64
interaction score (P11-AA): -1.15
interaction score (P12-AA): -0.654
interaction score (P2-AA): 0.917
interaction score (zCON9_A): -1.36
interaction score (zCON9_B): -0.854
B5: 4H3606-AA (peptide)
chain: DKNAALKAEIAALEAENAALEAKIAALKG

interaction score (4H2575-AA; mean of both orientations): -1.19
interaction score (4H335-AA): -1.5
interaction score (4H780-AA): -1.4
B6: 4H2165-AA (peptide)
chain: DKIAALEAEIAALKAKNAALEAKIAALEG

interaction score (4H1257-AA; mean of both orientations): 0.616
interaction score (4H1558-AA): -1.61
B10: 4H1064-AA (peptide)
chain: DENAALEAEIAALEAKIAALEAKNAALKG

interaction score (O5-AA): -0.0194
interaction score (O6-AA): -0.729
B13: 4H171-AA (peptide)
chain: DEIAALEAENAALEAKIAALKAENAALEG
